B1: GST-Tnp3 (Transportin 3), full length (natural protein)
chain: MEGAKPTLQLVYQAVQALYHDPDPSGKERASFWLGELQRSVHAWEISDQLLQIRQDVESCYFAAQTMKMKIQTSFYELPTDSHASLRDSLLTHIQNLKDLSPVIVTQLALAIADLALQMPSWKGCVQTLVEKYSNDVTSLPFLLEILTVLPEEVHSRSLRIGANRRTEIIEDLAFYSSTVVSLLMTCVEKAGTDEKMLMKVFRCLGSWFNLGVLDSNFMANNKLLALLFEVLQQDKTSSNLHEAASDCVCSALYAIENVETNLPLAMQLFQGVLTLETAYHMAVAREDLDKVLNYCRIFTELCETFLEKIVCTPGQGLGDLRTLELLLICAGHPQYEVVEISFNFWYRLGEHLYKTNDEVIHGIFKAYIQRLLHALARHCQLEPDHEGVPEETDDFGEFRMRVSDLVKDLIFLIGSMECFAQLYSTLKEGNPPWEVTEAVLFIMAAIAKSVDPENNPTLVEVLEGVVRLPETVHTAVRYTSIELVGEMSEVVDRNPQFLDPVLGYLMKGLCEKPLASAAAKAIHNICSVCRDHMAQHFNGLLEIARSLDSFLLSPEAAVGLLKGTALVLARLPLDKITECLSELCSVQVMALKKLLSQEPSNGISSDPTVFLDRLAVIFRHTNPIVENGQTHPCQKVIQEIWPVLSETLNKHRADNRIVERCCRCLRFAVRCVGKGSAALLQPLVTQMVNVYHVHQHSCFLYLGSILVDEYGMEEGCRQGLLDMLQALCIPTFQLLEQQNGLQNHPDTVDDLFRLATRFIQRSPVTLLRSQVVIPILQWAIASTTLDHRDANCSVMRFLRDLIHTGVANDHEEDFELRKELIGQVMNQLGQQLVSQLLHTCCFCLPPYTLPDVAEVLWEIMQVDRPTFCRWLENSLKGLPKETTVGAVTVTHKQLTDFHKQVTSAEECKQVCWALRDFTRLFR
notes: also called GST-Tnp3 (FL); TRN-SR2; source: E. coli BL21(DE3), purified (glutathione-Sepharose beads, dialysis); not shown: GST, N-terminal, kept
B2: GST-Tnp3 DC880 deletion mutant (domain or fragment)
chain: MEGAKPTLQLVYQAVQALYHDPDPSGKERASFWLGELQRSVHAWEISDQLLQIRQDVESCYFAAQTMKMKIQTSFYELPTDSHASLRDSLLTHIQNLKDLSPVIVTQLALAIADLALQMPSWKGCVQTLVEKYSNDVTSLPFLLEILTVLPEEVHSRSLRIGANRRTEIIEDLAFYSSTVVSLLMTCVEKAGTDEKMLMKVFRCLGSWFNLGVLDSNFMANNKLLALLFEVLQQDKTSSNLHEAASDCVCSALYAIENVETNLPLAMQLFQGVLTLETAYHMAVAREDLDKVLNYCRIFTELCETFLEKIVCTPGQGLGDLRTLELLLICAGHPQYEVVEISFNFWYRLGEHLYKTNDEVIHGIFKAYIQRLLHALARHCQLEPDHEGVPEETDDFGEFRMRVSDLVKDLIFLIGSMECFAQLYSTLKEGNPPWEVTEAVLFIMAAIAKSVDPENNPTLVEVLEGVVRLPETVHTAVRYTSIELVGEMSEVVDRNPQFLDPVLGYLMKGLCEKPLASAAAKAIHNICSVCRDHMAQHFNGLLEIARSLDSFLLSPEAAVGLLKGTALVLARLPLDKITECLSELCSVQVMALKKLLSQEPSNGISSDPTVFLDRLAVIFRHTNPIVENGQTHPCQKVIQEIWPVLSETLNKHRADNRIVERCCRCLRFAVRCVGKGSAALLQPLVTQMVNVYHVHQHSCFLYLGSILVDEYGMEEGCRQGLLDMLQALCIPTFQLLEQQNGLQNHPDTVDDLFRLATRFIQRSPVTLLRSQVVIPILQWAIASTTLDHRDANCSVMRFLRDLIHTGVANDHEEDFELRKELIGQVMNQLGQQLVSQLLHTCCFCLPPYTLPDVAEVLWEIMQVDRPTFCRWLENSLKGLP
notes: Transportin 3 (Tnp3), human, C-terminal deletion mutant DC880; made by PCR from pGST-TRN-SR2 with the Tnp3 forward primer (from the start ATG) and the DC880 reverse primer, cloned into pGEX-2T; source: E. coli BL21(DE3), purified (glutathione-Sepharose beads, Superdex 200 gel filtration); not shown: GST, N-terminal, kept
B3: GST-Tnp3 DC825 deletion mutant (domain or fragment)
chain: MEGAKPTLQLVYQAVQALYHDPDPSGKERASFWLGELQRSVHAWEISDQLLQIRQDVESCYFAAQTMKMKIQTSFYELPTDSHASLRDSLLTHIQNLKDLSPVIVTQLALAIADLALQMPSWKGCVQTLVEKYSNDVTSLPFLLEILTVLPEEVHSRSLRIGANRRTEIIEDLAFYSSTVVSLLMTCVEKAGTDEKMLMKVFRCLGSWFNLGVLDSNFMANNKLLALLFEVLQQDKTSSNLHEAASDCVCSALYAIENVETNLPLAMQLFQGVLTLETAYHMAVAREDLDKVLNYCRIFTELCETFLEKIVCTPGQGLGDLRTLELLLICAGHPQYEVVEISFNFWYRLGEHLYKTNDEVIHGIFKAYIQRLLHALARHCQLEPDHEGVPEETDDFGEFRMRVSDLVKDLIFLIGSMECFAQLYSTLKEGNPPWEVTEAVLFIMAAIAKSVDPENNPTLVEVLEGVVRLPETVHTAVRYTSIELVGEMSEVVDRNPQFLDPVLGYLMKGLCEKPLASAAAKAIHNICSVCRDHMAQHFNGLLEIARSLDSFLLSPEAAVGLLKGTALVLARLPLDKITECLSELCSVQVMALKKLLSQEPSNGISSDPTVFLDRLAVIFRHTNPIVENGQTHPCQKVIQEIWPVLSETLNKHRADNRIVERCCRCLRFAVRCVGKGSAALLQPLVTQMVNVYHVHQHSCFLYLGSILVDEYGMEEGCRQGLLDMLQALCIPTFQLLEQQNGLQNHPDTVDDLFRLATRFIQRSPVTLLRSQVVIPILQWAIASTTLDHRDANCSVMRFLRDLIHTGVANDHEEDFELRKELIGQV
notes: Transportin 3 (Tnp3), human, lacking the last C-terminal 98 residues; made by PCR from pGST-TRN-SR2 with the Tnp3 forward primer (from the start ATG) and the DC825 reverse primer, cloned into pGEX-2T; also called ΔC; C-term deleted Tnp3; source: E. coli BL21(DE3), purified (glutathione-Sepharose beads, Superdex 200 gel filtration); not shown: GST, N-terminal, kept

Target: RanQ69L-GTP (UniProt P62826 1-216, Q69L)
Assay: pull-down; GST-Tnp3 or its deletion mutants held on glutathione-Sepharose 4B beads, with RanQ69L-GTP and G2 tRNA, equimolar tRNA and Tnp3; binding buffer 50 mM Hepes pH 7.3, 200 mM NaCl, 2 mM Mg(Ac)2, 10 µM GTP; 4°C; 15% SDS-PAGE and silver staining
Conditions: both partners purified

Binder | binding result
B1 | binds
B2 | binds
B3 | binds

From PMC3161976, “Transportin 3 Promotes a Nuclear Maturation Step Required for Efficient HIV-1 Integration” (PLoS Pathogens, 2011)
